US20120316071A1 (published 2012)
Positions count from the first letter of the chain named. In names and notes the source's numbering stands. Values belong to the binder of their own block, whether it stands above or below them.

What was measured:
[1] = target: T1, Recombinant Human DLL4 (R&D Systems Cat#1506-D4/CF) (human, UniProt Q9NR61 27-524); test: affinity quoted with the Multispot ECL titration; method of the number not stated there
T1 construct: bought recombinant protein; also called rHuman DLL4; delta-like protein 4

[2] = target: T1, Recombinant Human DLL4 (R&D Systems …); test: SPR
[3] = target: T2, rHuman Notch-1/Fc Chimera, CF (R&D Systems Cat#3647-TK) (human, UniProt P46531 19-526); test: ECL multispot binding assay (MSD), antigen spotted on plate, 10 nM Fab
T2 construct: Bought recombinant protein; Fc part of the bought chimera not given

[4] = target: T3, rHuman IGF-1 sR, CF (R&D Systems Cat#391-GR) (human, UniProt P08069 31-932); test: as above
T3 construct: also called insulin-like growth factor-1 soluble receptor

[5] = target: T4, Recombinant Human DLL4 (R&D Systems Cat#1506-D4/CF) (human, UniProt Q9NR61 27-524); test: as above
T4 construct: Bought recombinant protein; also called delta-like protein 4; rHuman DLL4

[6] = target: T5, rHuman EGF R/Fc Chimera, CF (R&D Systems Cat#344-ER) (human, UniProt P00533 25-645); test: as above
T5 construct: Bought recombinant protein; also called epidermal growth factor receptor; Fc part of the bought chimera not given

[7] = target: T6, rHuman Erythropoietin R/Fc Chimera, CF (R&D Systems Cat#963-ER) (human, UniProt P19235 25-250); test: as above
T6 construct: Bought recombinant protein; also called EPO R; EPO R/Fc; Fc part of the bought chimera not given
T6 sequence (looked up): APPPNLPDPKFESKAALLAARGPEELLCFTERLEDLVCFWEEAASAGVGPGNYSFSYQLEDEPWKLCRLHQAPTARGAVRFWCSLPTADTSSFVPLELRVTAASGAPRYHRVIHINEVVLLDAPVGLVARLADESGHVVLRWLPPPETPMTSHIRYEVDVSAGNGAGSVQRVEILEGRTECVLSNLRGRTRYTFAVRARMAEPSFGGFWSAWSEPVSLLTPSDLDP

[8] = target: T7, rHuman HGF R/c-MET/Fc Chimera, CF (R&D Systems Cat#358-MT/CF) (human, UniProt P08581 25-932); test: as above
T7 construct: Bought recombinant protein; also called HGF R/Fc; hepatocyte growth factor receptor; Fc part of the bought chimera not given

[9] = target: T8, rHuman P-Cadherin/Fc Chimera, CF (R&D Systems Cat#861-PC) (human, UniProt P22223 108-654); test: as above
T8 construct: Bought recombinant protein; Fc part of the bought chimera not given

[10] = target: T9, rHuman CD44/Fc Chimera, CF (R&D Systems Cat#3660-CD) (human, UniProt P16070 21-220); test: as above
T9 construct: Bought recombinant protein; Fc part of the bought chimera not given

[11] = target: T10, rHuman ErbB2/Fc Chimera, CF (R&D Systems Cat#1129-ER) (human, UniProt P04626 23-652); test: as above
T10 construct: Bought recombinant protein; also called human epidermal growth factor 2 receptor; Fc part of the bought chimera not given

[12] = target: T11, rHuman ErbB2/Fc Chimera, CF (R&D Systems Cat#1129-ER) (human, UniProt P04626 23-652); test: ECL Multispot (MSD), antigen spotted, Fab 500.00 (column head 'Fab [µM]'); blank 495
T11 construct: Bought Fc chimera; also called human epidermal growth factor 2 receptor; Fc part of the bought chimera not given

[13] = target: T12, rHuman P-Cadherin/Fc Chimera, CF (R&D Systems Cat#861-PC) (human, UniProt P22223 108-654); test: as above
T12 construct: Bought Fc chimera; Fc part of the bought chimera not given

[14] = target: T13, Recombinant Human DLL4 (R&D Systems Cat#1506-D4/CF) (human, UniProt Q9NR61 27-524); test: as above
T13 construct: Bought recombinant protein; also called delta-like protein 4; rHuman DLL4

[15] = target: T14, rHuman HGF R/c-MET/Fc Chimera, CF (R&D Systems Cat#358-MT/CF) (human, UniProt P08581 25-932); test: as above
T14 construct: Bought Fc chimera; also called HGF R/Fc; hepatocyte growth factor receptor; Fc part of the bought chimera not given

[16] = target: T15, rHuman IGF-1 sR, CF (R&D Systems Cat#391-GR) (human, UniProt P08069 31-932); test: as above
T15 construct: Bought soluble receptor; also called insulin-like growth factor-1 soluble receptor

[17] = target: T11, rHuman ErbB2/Fc Chimera, CF (R&D …); test: ECL Multispot (MSD), antigen spotted, Fab 50.00 (column head 'Fab [µM]'); blank 223
[18] = target: T12, rHuman P-Cadherin/Fc Chimera, CF (R&D …); test: as above
[19] = target: T13, Recombinant Human DLL4 (R&D Systems …); test: as above
[20] = target: T14, rHuman HGF R/c-MET/Fc Chimera, CF (R&D …); test: as above
[21] = target: T15, rHuman IGF-1 sR, CF (R&D Systems …); test: as above
[22] = target: T13, Recombinant Human DLL4 (R&D Systems …); test: ELISA, DLL4 coated, 100 nM Fab, absorbance at 450 nm minus noise
[23] = target: T13, Recombinant Human DLL4 (R&D Systems …); test: ECL Multispot (MSD), DLL4 spotted, 10 nM Fab
[24] = target: T11, rHuman ErbB2/Fc Chimera, CF (R&D …); test: ECL Multispot (MSD), antigen spotted, Fab 5.00 (column head 'Fab [µM]'); blank 268
[25] = target: T12, rHuman P-Cadherin/Fc Chimera, CF (R&D …); test: as above
[26] = target: T13, Recombinant Human DLL4 (R&D Systems …); test: as above
[27] = target: T14, rHuman HGF R/c-MET/Fc Chimera, CF (R&D …); test: as above
[28] = target: T15, rHuman IGF-1 sR, CF (R&D Systems …); test: as above
[29] = target: T11, rHuman ErbB2/Fc Chimera, CF (R&D …); test: ECL Multispot (MSD), antigen spotted, Fab 0.50 (column head 'Fab [µM]'); blank 206
[30] = target: T12, rHuman P-Cadherin/Fc Chimera, CF (R&D …); test: as above
[31] = target: T13, Recombinant Human DLL4 (R&D Systems …); test: as above
[32] = target: T14, rHuman HGF R/c-MET/Fc Chimera, CF (R&D …); test: as above
[33] = target: T15, rHuman IGF-1 sR, CF (R&D Systems …); test: as above

apparent Kd (pooled screen) [1]: 70 nM | fold affinity against the parent Fab [2]: 10 fold
B1: Fab VH1-46_IGHD6-6*01_IGHJ1*01 S102A/S103P/S104F/H111F & L6_IGKJ1*01 (Fab, V domains shown)
VH: QVQLVQSGAEVKKPGASVKVSCKASGYTFTSYYMHWVRQAPGQGLEWMGIINPSGGSTSYAQKFQGRVTMTRDTSTSTVYMELSSLRSEDTAVYYCAREEYAPFSAEYFQFWGQGTLVTVSS
VL: not shown
notes: Fab; also called H:APFF & L:wt; APFF mutant

ECL signal [3]: 333 | ECL signal [4]: 273 | ECL signal [5]: 4500 | ECL signal [6]: 358 | ECL signal [7]: 382 | ECL signal [8]: 280 | ECL signal [9]: 339 | ECL signal [10]: 346 | ECL signal [11]: 312
B2: Fab VH1-46_IGHD6-6*01_IGHJ1*01 S102A/S103P/S104F/H111F S59A & L6_IGKJ1*01 (Fab, V domains shown)
VH: B1 VH with S59A
VL: not shown
notes: Tested as a Fab made in E. coli; also called APFF S59A

ECL signal [12]: 712 | ECL signal [13]: 785 | ECL signal [14]: 27200 | ECL signal [15]: 723 | ECL signal [16]: 736 | ECL signal [17]: 503 | ECL signal [18]: 453 | ECL signal [19]: 79300 | ECL signal [20]: 380 | ECL signal [21]: 485 | ELISA (Signal-Noise) [22]: 0.78 | ECL Signal/Noise [23]: 202 | ECL signal [24]: 286 | ECL signal [25]: 280 | ECL signal [26]: 75800 | ECL signal [27]: 258 | ECL signal [28]: 323 | ECL signal [29]: 222 | ECL signal [30]: 201 | ECL signal [31]: 7540 | ECL signal [32]: 215 | ECL signal [33]: 184
B3: Fab VH1-46_IGHD6-6*01_IGHJ1*01 S102A/S103P/S104F/H111F (APFF) & L6_IGKJ1*01 (Fab, V domains shown)
VH: B1 VH
VL: not shown
notes: Tested as Fab expressed in E. coli: heavy chain from plasmid A (CH1 with His6 and Flag tags), kappa light chain from plasmid C (CL kappa); also called H:APFF & L:wt
